According to patent publication US11312781B2, “Antigen binding molecules that bind LIGHT” (Capella Bioscience Ltd., priority 2018, dated 2022):

Assays:
[1] = target: T1, native trimeric LIGHT (Homo sapiens, UniProt O43557, K214E); experiment: Binding ratio of mAbs bound to LIGHT by native mass spectrometry; conditions: LIGHT incubated 1:5 molar ratio (protein:antibody)
T1 construct: amino acids 74-240 LIGHT (R&D Systems, 664-LI-025); purchased R&D Systems 664-LI-025
Procedure: The LIGHT protein (R&D Systems 664-LI-025) was solubilised in PBS buffer at a final concentration of 4 μM, whereas the mAbs were maintained at 20 μM in PBS. The samples were buffer exchanged into ammonium acetate pH 7.4 at different concentrations via a column with a cut-off of 40 kDa prior to mass spectrometry optimisation. […] Samples were stored at 4° C. and were used within one week. The antibodies were diluted to 1 μM prior to MSanalysis. For complex formation the LIGHT protein was incubated with each antibody separately in 1:5 ratio on ice and native mass measurements were performed 30 min after incubation.
Nano electrospray ionization measurements were performed using a Q Exactive hybrid quadrupole-Orbitrap mass spectrometer (Thermo Fisher Scientific) modified for the transmission and detection of high m/z ions. […] Elevated pressure was applied in the front optics and mass spectra were recorded at optimized collision energy. […] Data were analysed with Xcaliber software and deconvoluted manually.
Native mass spectroscopy was utilised to determine the ratio of mAb bound to native trimeric LIGHT. The measured mass of 3B04 (IgG4) was 147256±0.7 Da and the F19 anti-LIGHT mAb, (IgG4 mAb from EP2292663) was 147364±6.6 Da. […] Two major populations of the light protein were recorded with measured masses of 68 kDa and 71 kDa. […]

[2] = target: T2, wild type and mutated membrane LIGHT (Homo sapiens, UniProt O43557, T191A); experiment: Alanine scanning mutagenesis of membrane LIGHT and flow cytometry (HEK293FF cells); format: binding; conditions: aa mutation T191A, SEQ ID NO. 138
T2 construct: The full length LIGHT gene was synthesized by GeneArt (ThermoFisher Scientific); expressed in transfected cells; host or cells: HEK293FF, transient, pcDNA 3.1(+)
T2 sequence (O43557 whole entry T191A): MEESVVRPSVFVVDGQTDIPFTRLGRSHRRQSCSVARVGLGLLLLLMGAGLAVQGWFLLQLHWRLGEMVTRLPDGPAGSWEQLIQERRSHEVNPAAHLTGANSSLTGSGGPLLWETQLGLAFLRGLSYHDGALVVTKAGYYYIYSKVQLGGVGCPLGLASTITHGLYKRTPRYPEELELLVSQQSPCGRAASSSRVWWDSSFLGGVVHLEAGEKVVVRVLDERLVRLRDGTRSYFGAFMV
From the text: (§1) The full length LIGHT gene was synthesized by GeneArt (ThermoFisher Scientific) and cloned into the mammalian expression vector pcDNA 3.1(+). The following Ala mutations were introduced into the LIGHT gene: 30 single amino acid alanine substitutions from F57A to E86A; 2 single amino acid alanine substitutions; G188A, R189A; one serine substitution, A190S; 17 single amino acid alanine substitutions; T191A to V207A and 10 four amino acid alanine substitutions, 60-63, 64-67, 68-71, 72-75, 76-79, 80-83, 84-87, 88-91, 92-95 and 96-99. Constructs were reconstituted according to manufacture instructions, using DEPC-treated and sterile filtered water. Competent TOP10 E. coli cells were transformed with 100 ng of each construct and a single colony from each construct was picked and used to inoculate 10 ml of LB/carb100/glu2% medium and grown overnight at 37° C., 200 rpm. The extraction of the construct DNA was performed using the Qiagen QIAprep Spin Miniprep Kit (250) and the concentration was determined by measuring the O.D. at 260 nm in a spectrophotometer.
(§2) HEK293FF cells were cultured in Freestyle™293 expression medium (ThermoFisher scientific cat. no. 12338018) supplemented with 2 mM L-Glutamine. The day of transfection the cells were seeded in a 24-well plate at 0.6×10^6 cells/well. Lipofectamine 2000 (ThermoFisher scientific), 3 μl, was mixed with 50 μl OptiMEM medium (GIBCO) and then added to 50 μl Opti-MEM medium containing 3 ug plasmid DNA and incubated for 20 min at RT to form DNA-Lipofectamine 2000 complexes which were then added to the HEK293FF cells and incubated at 37° C., 5% CO2 for 24 hours. For each construct, in duplicate, 0.60×10^6 cells/well were used in a 96 well round bottom plate. Cells were centrifuged for 3 minutes at 300×g at 4° C., the supernatant discarded and the cells washed with 150 μl FACS buffer (0.5% FBS in phosphate buffered saline). This process was repeated 3 times. For each construct, […] cells/well were incubated with anti-LIGHT antibodies at the EC50 concentration and with positive controls of anti-LIGHT mAb MAB664 (R&D Systems), mAb F19 (EP2292663) or LTBR-Fc (R&D Systems), in a final volume of 50 μl/well for 30 min at 4° C., with shaking. The wells were washed 3 times as above and 50 μl/well of goat anti-human IgG FITC (1:1500 dilution in FACS buffer, SIGMA F9512-2ML) or goat anti-mouse APC (1/500 dilution in FACS buffer, BDBioscience 550826), as appropriate, was added to the wells and incubated for 30 min at 4° C. protected from the light, with shaking. The cells were then washed as above, resuspended in 100 μl of FACS buffer and binding of the antibodies to the constructs was measured using flow cytometry and a total of 10,000 cells were acquired for each sample. Controls of buffer and secondary antibody only as well as HEK293FF non transfected cells were also used.
(§3) All of the mAbs of this invention show a similar profile in that their epitope is located at amino acids 188-197 of LIGHT. […] The epitope of the mAbs of this invention defined by alanine scanning mutagenesis are residues 188-197 of LIGHT. This is visually depicted in FIG. 8 utilising a 3D visualisation of the LIGHT trimer from the crystal structure of LIGHT from Liu et al. (Structure 22: 1252-62; 2014). This would result in the mAbs binding to the “tip” of the LIGHT trimer and explaining the 1:1 binding. The impact of this epitope would result in […] less dosing of mAb 3B04 being required to neutralise membrane LIGHT compared to, for example, mAbs F19 and F23 (of EP2292663) which bind both soluble and membrane LIGHT equally and bind LIGHT in the ratio 3:1.

[3] = target: T3, wild type and mutated membrane LIGHT (Homo sapiens, UniProt O43557, V196A); experiment: as above; format: binding; conditions: aa mutation V196A, SEQ ID NO. 143
T3 construct: The full length LIGHT gene was synthesized by GeneArt (ThermoFisher Scientific); expressed in transfected cells; host or cells: HEK293FF, transient, pcDNA 3.1(+)
T3 sequence (O43557 whole entry V196A): as the sequence (O43557 whole entry T191A) above, with A191T, V196A counted along it
From the text: as §1, §2, §3

[4] = target: T4, wild type and mutated membrane LIGHT (Homo sapiens, UniProt O43557, W198A); experiment: as above; format: binding; conditions: aa mutation W198A, SEQ ID NO. 145
T4 construct: The full length LIGHT gene was synthesized by GeneArt (ThermoFisher Scientific); expressed in transfected cells; host or cells: HEK293FF, transient, pcDNA 3.1(+)
T4 sequence (O43557 whole entry W198A): as the sequence (O43557 whole entry T191A) above, with A191T, W198A counted along it
From the text: as §1, §2, §3

T1 sequence (O43557 74-240 K214E): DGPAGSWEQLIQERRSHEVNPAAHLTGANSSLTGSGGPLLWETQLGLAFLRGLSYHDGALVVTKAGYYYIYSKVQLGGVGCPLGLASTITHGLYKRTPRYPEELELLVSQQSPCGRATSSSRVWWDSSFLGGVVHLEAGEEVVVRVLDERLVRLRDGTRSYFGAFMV

Row | Molecule | Stoichiometry of mAb bound to native trimeric LIGHT (antibody:LIGHT trimer) [1] | Binding to membrane LIGHT construct as a percentage of the WT binding [2] [%] | Binding to membrane LIGHT construct as a percentage of the WT binding [3] [%] | Binding to membrane LIGHT construct as a percentage of the WT binding [4] [%]
1 | 3B04: parental mouse anti-membrane LIGHT antibody, VL SEQ ID NO 1, VH SEQ ID NO 5; tested as chimeric human IgG4 mAb (antibody, listed as Homo sapiens, V domains shown) VH: QVQLQQPGAELVRPGASVTLSCKASGYTFTDYEMHWVKQTPVHGLEWIGEIDPETGDTAYSQKFKGKATLTADKSSSTAYMEFRSLTSEDSAVYYCSRETDYFFDYWGQGTTLTVSS VL: DIQMTQTPASLSASVGETVTITCGASENIYGALNWYQRKQGKSPQLLIYGATNLADGMSSRFSGSGSGRQYSLKISSLHPDDFATYYCQNVLTTPWTFGGGTKLEIKR | one antibody per one LIGHT protein | – | – | –
2 | 3D12: parental mouse anti-membrane LIGHT antibody, VL SEQ ID NO 41, VH SEQ ID NO 45; tested as chimeric human IgG4 mAb (antibody, listed as Homo sapiens, V domains shown) VH: QVQLQQPGAELVRPGASVTLSCKASDYTFTDSEIHWVKQTPVHGLEWIGEIDPETGGTAYNQKFKGKATLTADKSSSTAYMELRSLTSEDSAVYYCSRETDYFFDYWGQGTTLTVSS VL: DIQMTQSPASLSASVGETVTITCGASENIYGALNWYQRKQGKSPQLLIYGATNLADGMSSRFSGSGSGRQYSLKISSLHPDDVATYYCQNVLSTPWTFGGGTKLEIKR | – | 3 | 78 | 86
